One assay relates to PTEN. The experiment in a line: Western blot analysis of PTEN expression. It counts as cell-based, mouse. The conditions noted are these: for PTEN concentrations: aortic smooth muscle and bone cells from IGFBP-2 gene deleted mice, exogenous addition. The procedure: FIG. 5. The heparin-binding domain of IGFBP2 suppresses PTEN expression. a and b, Igfbp2^−/− calvarial osteoblasts (COBs) were isolated, and treated with PBS, IGFBP-2 or pegylated heparin-binding domain peptide (PEG-HBD) in MEMα containing 0.1% BSA overnight. Whole cell lysate was collected and expression of PTEN and α-actin was analyzed by Western blot analysis. Expression levels of PTEN were quantified by normalizing to the expression levels of α-actin. c and d. COBs pre-incubated with PBS, IGFBP-2 or PEG-HBD overnight were treated with IGF-I (100 ng/ml) for 15 minutes. Whole cell lysate was collected and expression of pSer473-Akt and Akt was analyzed by Western blot analysis. Expression levels of pSer473-Akt were quantified by normalizing to the expression levels of Akt. Figures shown represent at least 3 independent experiments. Values are expressed as the mean±SEM (n=3-4). Statistical difference was analyzed by Student's t-test. *; <0.001, **; <0.01, ^†; <0.05.
FIG. 9. […] Igfbp2^+/+ calvarial osteoblasts were treated with PBS, control peptide, or heparin-binding domain peptide (HBD-peptide) overnight, and whole cell lysate was collected. PTEN expression was analyzed using western blot analysis (a), and quantitative analysis was performed (b). Values were expressed as the mean±SEM (n=3). Statistical significance was analyzed by ANOVA followed by Bonferroni post-hoc test. ^a; p<0.01 vs. PBS, ^b; p<0.01 vs. control peptide.
To prepare whole cell lysates, cells were solubilized in RIPA buffer^55. For cytosolic fraction, cells were solubilized with hypotonic buffer containing protease and phosphatase inhibitors (10 mM Tris, 0.2 mM MgCl2, pH 7.4) and kept on ice for 10 min. Cell lysates were mixed with sucrose buffer (final concentration; 25 mM Sucrose, 0.1 mM EDTA) and centrifuged at 20,000×g for 1 hour. Supernatant was used as cytosolic fraction. To prepare the membrane fraction, cells were solubilized with PBS containing protease and phosphatase inhibitors. The lysates were frozen at −80° C. for 1 h and thawed at room temperature. After three cycles, they were centrifuged at 13,000×g for 25 min. The pellet was suspended with membrane protein isolation buffer (20 mM Tris-HCl; 150 mM NaCl; 1 mM EDTA; 1 mM EGTA; and 1% Triton X-100, pH 7.5) containing protease and phosphatase inhibitors. Protein concentration was assessed by BCA protein assay kit (Thermo Scientific) and equal amounts of sample were separated by SDS-PAGE and transferred electrophoretically to nitrocellulose membranes. Membranes were blocked in 5% BSA in Tris-buffered saline. […]

Assay [1] concerns primary mouse preadipocytes. The experiment in a line: Differentiation of primary mouse preadipocytes, oil red O staining. The class given is cell-based. The following applies: peptide 2 ng to 2 ug/ml. The procedure:
The maximum effect of the peptide was to inhibit differentiation to a level wherein <20% of the cells were positive. These findings were reconfirmed using primary mouse preadipocytes. 35-50 day old mice were killed and inguinal fat pads were removed aseptically. Fat tissue was washed and dissolved in Hanks basic salt solution containing 0.1% glucose and 2 mg/ml collagenase, (type 3 Worthington) and 4% BSA. Following 15 min digestion at 37°, the tissue was separated by dispersion and pipetting and then filtered through an 80 micron sterile nylon filter. The cells were then plated in DMEM F12 containing 10% fetal calf serum and then centrifuged at 700×g to separate the stromal vascular cells from the adipocytes, which float. The supernatant was discarded and the cell pellet which contained the stromal vascular cells was resuspended in DMEM F12 with 10% FCS and plated at a density of 15,000 cells/cm^2. The medium was aspirated 24 hr later and fresh medium was replaced every 3 days until the cells reached 80-90% confluence. Differentiation was induced by adding serum free medium containing 25 mM glucose, 10 ug/ml transferin, 10 nM T3, 10-7 dexamethasone, 5 ug/ml HDL and 16.7 nM insulin. This was added to cultures that were between […]. […] The IGFBP-2 had been purified from cellular conditioned medium and was determined to be homogenous by amino acid sequence analysis.

Another assay concerns metacarpals. Briefly: Metacarpal culture ex vivo (calcein incorporated area, length, width). The following applies: 10 days, IGFBP2 200 ng/ml, peptides 2 μg/ml, vs PBS. The class given is cell-based, mouse. Here is the method: FIG. 2. The heparin binding domain of IGFBP2 enhances periosteal expansion of metacarpals ex vivo. Metacarpals were collected from day 1 male mouse, and treated with osteogenic media with IGFBP2 (200 ng/ml) or the heparin-binding domain peptide (HBD-peptide) (2 μg/ml) in the presence or absence of IGF-1 (20 ng/ml) for 10 days. Bones were labeled with calcein (500 ng/ml) and calcein incorporated area was visualized (a) and longitudinal length of calcein incorporated area was quantified (b). Alcian blue and Von Kossa double staining was performed (c) and length and width of metacarpals were quantified (d). Statistical difference was analyzed by ANOVA followed by Bonferroni post-hoc test. Figures shown represent at least 3 independent experiments. Values are expressed as the mean±SEM (n=3-4). ^a; <0.05 vs PBS, ^b; <0.01 vs PBS, ^c; <0.001 vs PBS, ^d; <0.01 vs HBD, ^e; <0.05 vs IGF-I, ^f; <0.05 vs HBD.
Metacarpals were isolated from Igfbp2^−/− mice at 1-day old and incubated in DMEM containing 0.5% BSA, 50 μg/ml ascorbic acid and 1 mM β-glycerol phosphate for 10 days^54. Stimulants were added to culture media from day 1. At day 10, metacarpals were incubated in media containing calcein (500 ng/ml) for 2 hours for staining of calcium deposition, and images were obtained. Then, bones were fixed with 4% PFA, embedded in paraffin, and processed for Alcian blue and von Kossa double staining.

Take “KHHLGLEEPKKLR (IGFBP-2 heparin binding domain-containing peptide sequence) [peptide of SEQ ID NO:1]”: the PTEN concentrations result with PTEN was “could suppress PTEN concentrations”. Moreover, the “inhibition of adipocyte differentiation” value in assay [1] was “reconfirmed”.

B1: IGFBP-2: Insulin-like growth factor binding protein-2, 36,000 dalton protein, purified from cellular conditioned medium (protein, UniProt P18065 36-325, looked up)
Insulin-like growth …: AEVLFRCPPCTPERLAACGPPPVAPPAAVAAVAGGARMPCAELVREPGCGCCSVCARLEGEACGVYTPRCGQGLRCYPHPGSELPLQALVMGEGTCEKRRDAEYGASPEQVADNGDDHSEGGLVENHVDSTMNMLGGGGSAGRKPLKSGMKELAVFREKVTEQHRQMGKGGKHHLGLEEPKKLRPPPARTPCQQELDQVLERISTMRLPDERGPLEHLYSLHIPNCDKHGLYNLKQCKMSLNGQRGECWCVNPNTGKLIQGAPTIRGDPECHLFYNEQQEARGVHTQRMQ
Consider B1, for which the PTEN concentrations entry in the assay on PTEN was “could suppress PTEN concentrations”. For the same molecule, in the assay on PTEN (primary calvarial osteoblasts, overnight treatment), the PTEN expression entry is “markedly suppressed PTEN expression”. For the same molecule, the “calcein incorporated area of metacarpals” value in the assay with metacarpals (IGF-1 20 ng/ml) is on record as “significantly enhanced”. Besides, the “width (and length) of metacarpals” value in the assay with metacarpals was “increased the width of metacarpals”.

The record behind these values is US9220746B2, “Compounds and methods for treating bone disorders and controlling weight” (The University of North Carolina at Chapel Hill, priority 2009, dated 2015).
